Data as given in patent publication US20240207461A1, “RADIOACTIVE ANTITUMOR AGENT” (NIHON MEDI-PHYSICS CO., LTD., priority 2021, published 2024).
Residue numbers refer to the chain shown, from its start.

Assays:
[1] = test system: SW1990 tumor-bearing mice; assay: SPECT-CT imaging of ^111In-labeled antibodies, VOI analysis and absorbed dose calculation; format: in vivo, Balb/c nude mice; details: for SPECT absorbed dose liver / SPECT absorbed dose tumor: half-life converted from ^111In to ^225Ac, sphere model; for SPECT absorbed dose liver: mean liver weight 1.15 g; for SPECT absorbed dose tumor: tumor volume assumed 150 mm^3; for maximum tolerated dose (threshold dose/absorbed dose): threshold dose of liver assumed to be 30 Gy
Experimental: To find an anti-MUC5AC antibody with high tumor accumulation ability and high maximum tolerated dose, various antibodies were labeled with ^111In, administered to tumor-bearing mice, and SPECT-CT imaging was performed. Cumulative amount of radioactivity and absorbed dose in tumor and liver were calculated and compared using the obtained images.
(§1) Human pancreatic cancer cell line SW1990 (0.7×10^7 cells) were subcutaneously administered to Balb/c nude mice (male) from the flank to the back thereof.
(§2) When the tumor size reached about 150-300 mm^3 14 days after transplantation of SW1990, various ^111In-labeled antibodies prepared in Reference Example 1-1 were administered from the tail vein of the mice. The tumor volume was calculated from the following calculation formula.
SPECT-CT imaging (small animal SPECT-CT apparatus: FX-3000, manufactured by Trifoil) was performed under the conditions in the following Table. The time points for imaging were 1, 6, 24, 48, 72, and 168 hr after administration. Image reconstruction was performed by the OSEM method for SPECT and the FBP method for CT. A VOI (volume of interest, three-dimensional ROI) analysis of the tumor and liver at each time point was performed. The count number per organ volume was corrected to % ID/g, the physical half-life was converted from ^111In to ^225Ac, the difference in physical half-life was corrected, and the time activity curve with the biological half-life added was obtained. The cumulative radioactivity amount was calculated from the integrated value of this time activity curve, and the absorbed dose was calculated in a sphere model (OLINDA/EXM ver2.0), and this was compared and examined for each antibody. However, for H01L03, a decrease in the time activity curve was not observed 168 hr after administration. Thus, the biological half-life was not considered and only the physical half-life was added.
When the threshold dose of liver was assumed to be 30 Gy, the maximum tolerated dose was estimated to be 3.90 MBq with a humanized antibody (H01L03) and 0.43 MBq with a chimeric antibody. The maximum tolerated dose (MBq) was calculated by threshold dose (Gy)/absorbed dose (Gy/MBq).
(§3) In the Table, the tumor volume was calculated assuming 150 mm^3 in the absorbed dose of SPECT. The absorbed dose of the liver was calculated based on the mean (1.15±0.14 g, n=19) of the weight of the mouse liver used in this Reference Example. The numerical value of the biodistribution was expressed by the mean±standard deviation of n=4 (however, n=3 for H02L04).

[2] = test system: SW1990 tumor-bearing mice; assay: Biodistribution and excretion route 168 hr after administration of ^111In-labeled antibodies; format: in vivo, Balb/c nude mice; details: for biodistribution at 168 hr after administration, blood / biodistribution at 168 hr after administration, kidney / biodistribution at 168 hr after administration, liver / biodistribution at 168 hr after administration, spleen / biodistribution at 168 hr after administration, tumor: ^111In-labeled antibody, tail vein, mean ± SD n=4 (n=3 for H02L04)
Experimental: as §1, §2
A graph showing the results of confirming the biodistribution and the excretion route after the completion of SPECT-CT imaging 168 hr after administration are shown in FIG. 11.
as §3

[3] = ^111In-labeled antibodies, SPECT-CT up to 168 hr

B1: H01L03: anti-MUC5AC humanized antibody, heavy chain variable region H01 (SEQ ID NO: 1), light chain L03 (SEQ ID NO: 7), tested ^111In-labeled via DOTA-PEG-peptide (conjugate)
VH: EVQLLESGGGLVQPGGSLRLSCAASGFTFSNYGMSWVRQAPGKGLEWVSTISNSGRYTYFPDSVKGRFTISRDNSKNTLYLQMNSLRAEDTALYYCTRHLDYANYDAMDYWGQGTLVTVSS
VL: DIQMTQSPSSLSASVGDRVTITCRASKSVTTSDFSYMHWYQQKPGKSPKLLIYLASNLESGVPSRFSGSGSGTDFSLTISSLQPEDFATYYCQHSREFPWTFGGGTKVEIK
modifications: 111In-DOTA-PEG-peptide label; Humanaized antibody heavy chain variable region 1 (H01); Humanaized antibody light chain variable region 3 (L03)
[1]; 168 hr after administration
  decrease in the time activity curve: not observed
[1]; [3]
  accumulation in the tumor (comparison among antibodies): highest
[1]
  SPECT absorbed dose liver: 7.7 Gy/MBq
  SPECT absorbed dose tumor: 35.0 Gy/MBq
  maximum tolerated dose (threshold dose/absorbed dose): 3.90 MBq
[2]; 168 hr after administration
  blood retention: high
  excretion: slowest
[2]
  biodistribution at 168 hr after administration, blood: 5.3 ± 1.3 % ID/g
  biodistribution at 168 hr after administration, kidney: 2.5 ± 0.4 % ID/g
  biodistribution at 168 hr after administration, liver: 3.6 ± 1.7 % ID/g
  biodistribution at 168 hr after administration, spleen: 5.4 ± 0.8 % ID/g
  biodistribution at 168 hr after administration, tumor: 24.2 ± 3.9 % ID/g

B2: chimeric antibody: anti-MUC5AC chimeric antibody disclosed in Patent Literature 1 (SEQ ID NOs: 23 and 24), tested ^111In-labeled (conjugate)
VH: EVKLVESGGVLVKSGGSLKLSCAVSGFTFSNYGMSWVRQTPEKRLEWVATISNSGRYTYFPDSVKGPFAISRDNAKNNLYLQMSSLRSADTALYYCTRHLDYANYDAMDYWGQGTSVTVSS
VL: DIVLTQSPASLAVSLGQRATISCRASKSVTTSDFSYMHWYQQKPGQPPKLLLYLASNLESGVPDRFSGSGSGYDFYLNIHPVEEEDAATYYCQHSREFPWTFGGGTKLEIK
modifications: 111In label; Kimeric antibody heavy chain variable region 7 (H07); Kimeric antibody light chain variable region 8 (L08)
[1]; [3]
  accumulation in the liver (comparison among antibodies): highest
  accumulation in the tumor (comparison among antibodies): lowest
[1]
  SPECT absorbed dose liver: 70.1 Gy/MBq
  SPECT absorbed dose tumor: 9.5 Gy/MBq
  maximum tolerated dose (threshold dose/absorbed dose): 0.43 MBq
[2]
  biodistribution at 168 hr after administration, blood: 2.2 ± 0.6 % ID/g
  biodistribution at 168 hr after administration, kidney: 1.8 ± 0.3 % ID/g
  biodistribution at 168 hr after administration, liver: 7.9 ± 1.9 % ID/g
  biodistribution at 168 hr after administration, spleen: 5.0 ± 1.8 % ID/g
  biodistribution at 168 hr after administration, tumor: 11.6 ± 0.9 % ID/g

B3: H01L04: anti-MUC5AC humanized antibody, H01 (SEQ ID NO: 1) and L04 (SEQ ID NO: 8), tested ^111In-labeled (conjugate)
VH: B1 VH
VL: DIVMTQSPDSLAVSLGERATINCKASKSVTTSDFSYLHWYQQKPGQPPKLLIYLASNLESGVPDRFSGSGSGTDFTLTISSLQAEDVAVYYCQHSREFPWTFGGGTKLEIK
modifications: 111In label; Humanaized antibody heavy chain variable region 1 (H01); Humanaized antibody light chain variable region 4 (L04)
[1]
  SPECT absorbed dose liver: 33.4 Gy/MBq
  SPECT absorbed dose tumor: 15.3 Gy/MBq
[2]
  biodistribution at 168 hr after administration, blood: 2.1 ± 0.8 % ID/g
  biodistribution at 168 hr after administration, kidney: 1.1 ± 0.3 % ID/g
  biodistribution at 168 hr after administration, liver: 3.1 ± 0.9 % ID/g
  biodistribution at 168 hr after administration, spleen: 3.8 ± 1.2 % ID/g
  biodistribution at 168 hr after administration, tumor: 12.9 ± 2.6 % ID/g

B4: H02L04: anti-MUC5AC humanized antibody, H02 (SEQ ID NO: 2) and L04 (SEQ ID NO: 8), tested ^111In-labeled (conjugate)
VH: B1 VH with E1L, L5V, L11V, Q13R, V37I, S75A, T78S
VL: B3 VL
modifications: 111In label; Humanaized antibody heavy chain variable region 2 (H02); Humanaized antibody light chain variable region 4 (L04)
[1]
  SPECT absorbed dose liver: 27.0 Gy/MBq
  SPECT absorbed dose tumor: 13.7 Gy/MBq
[2]
  biodistribution at 168 hr after administration, blood: 2.6 ± 2.3 % ID/g
  biodistribution at 168 hr after administration, kidney: 1.4 ± 1.0 % ID/g
  biodistribution at 168 hr after administration, liver: 2.7 ± 0.7 % ID/g
  biodistribution at 168 hr after administration, spleen: 4.0 ± 3.0 % ID/g
  biodistribution at 168 hr after administration, tumor: 15.6 ± 6.2 % ID/g

B5: H04L04: anti-MUC5AC humanized antibody, H04 (SEQ ID NO: 4) and L04 (SEQ ID NO: 8), tested ^111In-labeled (conjugate)
VH: B1 VH with A24V, K76R, S85T, L93V, L116P
VL: B3 VL
modifications: 111In label; Humanaized antibody heavy chain variable region 4 (H04); Humanaized antibody light chain variable region 4 (L04)
[1]
  SPECT absorbed dose liver: 35.4 Gy/MBq
  SPECT absorbed dose tumor: 15.0 Gy/MBq
[2]
  biodistribution at 168 hr after administration, blood: 3.8 ± 0.7 % ID/g
  biodistribution at 168 hr after administration, kidney: 1.6 ± 0.2 % ID/g
  biodistribution at 168 hr after administration, liver: 3.9 ± 1.4 % ID/g
  biodistribution at 168 hr after administration, spleen: 3.4 ± 0.3 % ID/g
  biodistribution at 168 hr after administration, tumor: 17.2 ± 4.2 % ID/g
